Laboratory results reported in paper PMC11514473, “The transition state for coupled folding and binding of a disordered DNA binding domain resembles the unbound state” (Nucleic Acids Research, 2024).

How the values were obtained:
Assay in all cases: stopped-flow fluorescence (koff/kon); 10 mM Mg2+; 10 mM MES pH 6.5, 150 mM NaCl, 10 mM MgCl2, 0.05% Tween-20, 25 C; NMR: 10 mM Tris-d11, 150 mM NaCl, 10 mM MgCl2, 1 mM NaN3, 5% D2O (NOE at 25 C)
Conditions in all cases: protein: recombinant; tags: extra N-terminal Gly; chain copies: 2; label: 5' Alexa Fluor 488; hairpin (self-annealing, 11 bp stem, CCCC loop)
285bZIP E295G/E299G = biological target: T1, 285bZIP E295G/E299G (human, UniProt P16220-1 285-339, C300S;C310S;C337S;E295G;E299G)
T1 sequence: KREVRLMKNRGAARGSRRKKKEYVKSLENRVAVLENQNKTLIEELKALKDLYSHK

285bZIP M291A = biological target: T2, 285bZIP M291A (human, UniProt P16220-1 285-339, C300S;C310S;C337S;M291A)
T2 sequence: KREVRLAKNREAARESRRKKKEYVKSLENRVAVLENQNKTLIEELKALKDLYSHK

285bZIP E299G = biological target: T3, 285bZIP E299G (human, UniProt P16220-1 285-339, C300S;C310S;C337S;E299G)
T3 sequence: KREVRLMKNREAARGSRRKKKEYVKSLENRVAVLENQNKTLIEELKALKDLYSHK

285bZIP E287G = biological target: T4, 285bZIP E287G (human, UniProt P16220-1 285-339, C300S;C310S;C337S;E287G)
T4 sequence: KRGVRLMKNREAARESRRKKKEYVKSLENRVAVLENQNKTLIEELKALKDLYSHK

285bZIP E295A/E299A = biological target: T5, 285bZIP E295A/E299A (human, UniProt P16220-1 285-339, C300S;C310S;C337S;E295A;E299A)
T5 sequence: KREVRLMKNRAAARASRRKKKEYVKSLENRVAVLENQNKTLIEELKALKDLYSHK

285bZIP E306A = biological target: T6, 285bZIP E306A (human, UniProt P16220-1 285-339, C300S;C310S;C337S;E306A)
T6 sequence: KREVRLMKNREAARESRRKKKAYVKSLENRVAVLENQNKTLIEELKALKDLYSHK

285bZIP E306G = biological target: T7, 285bZIP E306G (human, UniProt P16220-1 285-339, C300S;C310S;C337S;E306G)
T7 sequence: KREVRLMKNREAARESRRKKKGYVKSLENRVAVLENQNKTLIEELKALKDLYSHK

285bZIP E299G/E306G = biological target: T8, 285bZIP E299G/E306G (human, UniProt P16220-1 285-339, C300S;C310S;C337S;E299G;E306G)
T8 sequence: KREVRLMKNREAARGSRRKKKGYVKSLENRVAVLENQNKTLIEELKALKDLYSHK

285bZIP M291G = biological target: T9, 285bZIP M291G (human, UniProt P16220-1 285-339, C300S;C310S;C337S;M291G)
T9 sequence: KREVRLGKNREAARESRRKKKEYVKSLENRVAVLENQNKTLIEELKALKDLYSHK

285bZIP R302A = biological target: T10, 285bZIP R302A (human, UniProt P16220-1 285-339, C300S;C310S;C337S;R302A)
T10 sequence: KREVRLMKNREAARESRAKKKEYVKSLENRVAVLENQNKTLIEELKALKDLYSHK

CCTGACGTCAGCCCCCTGACGTCAGG (structured_DNA) [AlexaFluor488-CREh] was tested, and the Kd (285bZIP E295G/E299G) was 170 ± 50 nM, the Kd (285bZIP M291A) was 0.31 ± 0.03 nM and the Kd (285bZIP E299G) was 2.72 ± 0.15 nM. It also gave a Kd (285bZIP E287G) of 4.6 ± 0.6 nM, a Kd (285bZIP E295A/E299A) of 0.102 ± 0.008 nM and a Kd (285bZIP E306A) of 0.139 ± 0.012 nM. For the same binder, the Kd (285bZIP E306G) was 3.9 ± 0.2 nM, the Kd (285bZIP E299G/E306G) was 54 ± 4 nM and the Kd (285bZIP M291G) was 5.2 ± 0.7 nM. The Kd (285bZIP R302A) was 13.9 ± 1.8 nM.
